Experimental data: patent US20240002497A1 (Merck Sharp & Dohme, published 2024)
Positions count from the first letter of the chain named. In names and notes the source's numbering stands.

Key:
rhNav1.7α+β1-β2-β3 [1] = molecular target: T1, rhNav1.7α+β1-β2-β3 (rhesus monkey α subunit with human β …); assay: binding FACS, CHO FlpIn cells
T1 construct: P2A cleaves it into α, β1, β2, β3; also called rhNav1.7-beta1-beta2-beta3

rhNav1.7α+β1-β2-β3 [2] = molecular target: T1, rhNav1.7α+β1-β2-β3; assay: cell-based or functional assay
rhNav1.7α = rhNav1.7α (rhesus monkey, UniProt Q15858 1-1988 (human entry)); assay: cell-based or functional assay
huNav1.7α = huNav1.7α (human, UniProt Q15858 1-1988); assay: cell-based or functional assay
huNav1.7α+β1 = huNav1.7α+β1 (human, UniProt Q15858 1-1988; Q07699 19-218); assay: cell-based or functional assay
huNav1.7α + β1 = huNav1.7α + β1 (human); assay: cell-based or functional assay
rhNav1.7α + β1-β2-β3 = rhNav1.7α + β1-β2-β3 (rhesus monkey); assay: cell-based or functional assay
[3] = molecular target: huNav1.7α + β1 on HEK cells (human, UniProt Q15858 1-1988; Q07699 19-218); assay: binding FACS, HEK cells (HEKa/b1)
[4] = molecular target: T2, huNav1.7α + β1-β2-β3 (human Nav1.7α co-expressed with human Navβ1, Navβ2 and Navβ3 on cells) (human); assay: binding FACS, CHO FlpIn cells
T2 construct: also called huNav1.7-beta1-beta2-beta3; CHO FlpIn huNav1.7α + β1-β2-β3
Outline: (§1)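 Cells are first suspended in FACS buffer at 1×10^5 per well. Next, FLAG3-tagged ISVD is added for 30 minutes at 4° C, and binding is then detected with murine anti-Flag. Finally, samples go into 1 μg/mL propidium iodide before flow cytometry.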

[5] = molecular target: T3, rhNav1.7α + β1-β2-β3 (rhesus Nav1.7α co-expressed with Navβ1, Navβ2 and Navβ3 on cells) (rhesus monkey (α subunit); β subunits …); assay: binding FACS, CHO FlpIn cells
T3 construct: also called rhNav1.7-beta1-beta2-beta3; CHO FlpIn rhNav1.7α + β1-β2-β3
Outline: as §1

[6] = molecular target: T4, huNav1.7α on HEK cells (without β subunits) (human, UniProt Q15858 1-1988); assay: binding FACS, HEK cells (HEKa)
T4 construct: also called HEKa huNav1.7α

B1: F010300477 (VHH)
VHH: EVQLVESGGGLVQPGGSLRLSCAASGSIFNINSMAWYRRAPGKQRELVASSTNGGSTNYADSVKGRFTISRDNAKRVYLQMNSLTPEDTAVYYCNWLLQPSIYDISRTYWGQGTLVTVSS
notes: vs F0103275B05: A94W
Q: Which EC50 (rhNav1.7α+β1-β2-β3 [1]) does the source give for B1 here?
A: 170 nM

Q: And the “single pulse IC50” value (rhNav1.7α+β1-β2-β3 [2])?
A: 1200 nM

Q: What about the “2-pulse IC50 [M], P1” value (rhNav1.7α) of the same binder?
A: 3e-06 M

Q: What about the “2-pulse IC50 [M], P2” value (rhNav1.7α) of the same binder?
A: 1e-06 M

Q: And the “2-pulse IC50 [M], P1” value (huNav1.7α)?
A: 2e-06 M

Q: What about the “2-pulse IC50 [M], P2” value (huNav1.7α) of the same binder?
A: 2e-06 M

Q: What about the “single pulse IC50” value (huNav1.7α+β1) of the same binder?
A: 96 nM

B2: F010300631 (VHH)
VHH: B1 VHH with S27P, I28V, S50Y, N53P, N95R, W96A
Q: How did the “Qpatch IC50” value (huNav1.7α + β1) turn out when B2 was run?
A: 73 nM

Q: And the “Qpatch IC50” value (rhNav1.7α + β1-β2-β3)?
A: 173 nM

B3: F010300684 (VHH)
VHH: B1 VHH with S27P, I28V, I31W, N53P, N95R, W96A, T108I
Q: Which “Qpatch IC50” value (huNav1.7α + β1) does the source give for B3 here?
A: 202 nM

Q: What about the “Qpatch IC50” value (rhNav1.7α + β1-β2-β3) of the same binder?
A: 212 nM

B4: F010300948 (VHH)
VHH: B1 VHH with S27P, I28V, S33R, N53P, N95R, T108I
Q: With B4 as the binder, how does the “Qpatch IC50” value (huNav1.7α + β1) read?
A: 315 nM

Q: And the “Qpatch IC50” value (rhNav1.7α + β1-β2-β3)?
A: 58 nM

B5: F010300990 (VHH)
VHH: B1 VHH with S27P, I28V, S33R, S50Y, N53P, W96A, T108I
Q: Which results are given for B5?
A: Qpatch IC50 (huNav1.7α + β1): 249 nM; Qpatch IC50 (rhNav1.7α + β1-β2-β3): 101 nM

B6: F010300900 (VHH)
VHH: B1 VHH with S27P, I28V, S33R, N53P, S56D, N95R, T108I
Q: With B6 as the binder, how does the “Qpatch IC50” value (huNav1.7α + β1) read?
A: 196 nM

Q: And the “Qpatch IC50” value (rhNav1.7α + β1-β2-β3)?
A: 36 nM

B7: F010300880 (VHH)
VHH: B1 VHH with S27P, I28V, S33R, N53P, S56D, N95R
Q: What does the source list for B7?
A: Qpatch IC50 (huNav1.7α + β1): 27 nM; Qpatch IC50 (rhNav1.7α + β1-β2-β3): 122 nM

B8: F010300477 (VHH)
VHH: B1 VHH
Q: How did the “Qpatch IC50” value (huNav1.7α + β1) turn out when B8 was run?
A: 96 nM

Q: And the “Qpatch IC50” value (rhNav1.7α + β1-β2-β3)?
A: 1190 nM

B9: F010301652 (VHH)
VHH: B1 VHH with L11V, S33R, S50Y, S56D, R76N, T85R, V91L, N95R, W96A
notes: also called F0103275B05(L11V, S33R, S50Y, S56D, R76N, T83R, V89L, N93R)
Q: With B9 as the binder, how does the EC50 [3] read?
A: 38 nM

Q: What about the EC50 [4] of the same binder?
A: 61 nM

Q: What about the EC50 [5] of the same binder?
A: 24 nM

Q: And the EC50 [6]?
A: 24 nM

B10: F010300684 (VHH)
VHH: B1 VHH with S27P, I28V, I31W, N53P, N95R, W96A, T108I
notes: vs F0103275B05: S27P, I28V, I31W, N53P, N93R, T101I
Q: For B10, which EC50 (rhNav1.7α+β1-β2-β3 [1]) is on record?
A: 50 nM

Q: And the “single pulse IC50” value (rhNav1.7α+β1-β2-β3 [2])?
A: 210 nM

Q: And the “2-pulse IC50 [M], P1” value (rhNav1.7α)?
A: 7e-06 M

Q: What about the “2-pulse IC50 [M], P2” value (rhNav1.7α) of the same binder?
A: 1e-06 M

Q: And the “2-pulse IC50 [M], P1” value (huNav1.7α)?
A: 2e-06 M

Q: What about the “2-pulse IC50 [M], P2” value (huNav1.7α) of the same binder?
A: 2e-06 M

Q: What about the “single pulse IC50” value (huNav1.7α+β1) of the same binder?
A: 200 nM

B11: F010301655 (VHH)
VHH: B1 VHH with L11V, S33R, R39Q, S50Y, S56D, R76N, T85R, V91L, N95R, W96A
notes: also called F0103275B05(L11V, S33R, R39Q, S50Y, S56D, R76N, T83R, V89L, N93R)
Q: How did the EC50 [3] turn out when B11 was run?
A: 28 nM

Q: What about the EC50 [4] of the same binder?
A: 46 nM

Q: What about the EC50 [5] of the same binder?
A: 26 nM

Q: And the EC50 [6]?
A: 19 nM

B12: F010301653 (VHH)
VHH: B1 VHH with L11V, S33R, S50Y, S56D, T85R, V91L, N95R, W96A
notes: also called F0103275B05(L11V, S33R, S50Y, S56D, T83R, V89L, N93R)
Q: For B12, which EC50 [3] is on record?
A: 29 nM

Q: And the EC50 [4]?
A: 36 nM

Q: What about the EC50 [5] of the same binder?
A: 16 nM

Q: What about the EC50 [6] of the same binder?
A: 15 nM

B13: F010301654 (VHH)
VHH: B1 VHH with L11V, S33R, R39Q, S50Y, S56D, T85R, V91L, N95R, W96A
notes: also called F0103275B05(L11V, S33R, R39Q, S50Y, S56D, T83R, V89L, N93R)
Q: With B13 as the binder, how does the EC50 [3] read?
A: 25 nM

Q: What about the EC50 [4] of the same binder?
A: 32 nM

Q: What about the EC50 [5] of the same binder?
A: 18 nM

Q: And the EC50 [6]?
A: 18 nM

B14: F010300631 (VHH)
VHH: B1 VHH with S27P, I28V, S50Y, N53P, N95R, W96A
notes: vs F0103275B05: S27P, I28V, S50Y, N53P, N93R
Q: B14 was tested. Which EC50 (rhNav1.7α+β1-β2-β3 [1]) did it give?
A: 45 nM

Q: What about the “single pulse IC50” value (rhNav1.7α+β1-β2-β3 [2]) of the same binder?
A: 170 nM

Q: And the “2-pulse IC50 [M], P1” value (rhNav1.7α)?
A: 2e-06 M

Q: What about the “2-pulse IC50 [M], P2” value (rhNav1.7α) of the same binder?
A: 8e-07 M

Q: What about the “2-pulse IC50 [M], P1” value (huNav1.7α) of the same binder?
A: 1e-06 M

Q: What about the “2-pulse IC50 [M], P2” value (huNav1.7α) of the same binder?
A: 8e-07 M

Q: What about the “single pulse IC50” value (huNav1.7α+β1) of the same binder?
A: 73 nM
